In patent US7361341B2, “Methods of treating cancer using antibodies that immunospecifically bind to trail receptors” (Human Genome Sciences, Inc., priority 2001, dated 2008):

Columns and labels:
Test in all cases: Specificity phage ELISA
Format in all cases: binding
Settings in all cases: antigen coated at 1 μg/ml, absorbance at 450 nm
TR5 = target: T1, TR5 (Homo sapiens, UniProt O14798, I229T)
T1 sequence (O14798 with tags, fused parts or gaps I229T limits assumed): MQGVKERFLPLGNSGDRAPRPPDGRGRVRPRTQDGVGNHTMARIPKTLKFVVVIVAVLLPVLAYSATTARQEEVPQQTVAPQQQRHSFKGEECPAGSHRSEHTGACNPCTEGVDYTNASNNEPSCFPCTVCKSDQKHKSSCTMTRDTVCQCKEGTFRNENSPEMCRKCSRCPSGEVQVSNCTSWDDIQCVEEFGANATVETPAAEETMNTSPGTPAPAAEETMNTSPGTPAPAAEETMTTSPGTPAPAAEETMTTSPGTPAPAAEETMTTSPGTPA
Method: (§1) To determine the specificity of the antibodies which bound TR4, a phage ELISA was performed against human TR4 fusion protein, and a panel of related and unrelated human antigens TR7, TR5, TR10, BlyS (described in International Patent Publication Numbers WO98/18921 and WO00/50597, which are both herein icorprated by reference in their entireties), irrelevant fusion protein and BSA.
(§2) Individual E. coli colonies containing phagemid were inoculated into 5 ml 2YTAG and incubated at 37° C. for 4 hours, shaking. M13K07 helper phage (Pharmacia) was added to each tube to an moi of 10 and incubated for […], the first 30 minutes static and the final 30 minutes with gentle shaking. Cells were pelleted by centrifugation at 3,500 rpm for 10 minutes. The phage containing supernatant (5 ml) was carefully transferred to a fresh tube, 1 ml of 6 MPBS added and then incubated at room temperature for 1 hour to pre-block the phage prior to ELISA.
(§3) Flexible 96-well plates (Falcon) were coated overnight at 4° C. with each antigen (1 μg/ml). All antigens were coated in PBS. After coating, the solutions were removed from the wells, and the plates were blocked for 1 hour at room temperature in MPBS. The plates were washed 3 times with PBS and then 50 μl of pre-blocked phage was added to each well. The plates were incubated at room temperature for 1 hour and then washed with 3 changes of PBST followed by 3 changes of PBS.
(§4) To each well, 50 μl of an anti-M13-HRP conjugate (Pharmacia) at a 1 in 5000 dilution in MPBS was added and the plates incubated at room temperature for 1 hour. Each plate was washed three times with PBST followed by three times with PBS.
(§5) Fifty μl of TMB substrate was then added to each well, and incubated at room temperature for 30 minutes or until colour development. The reaction was stopped by the addition of 25 μl of 0.5 M H2SO4. The signal generated was measured by reading the absorbance at 450 nm (A450) using a microtitre plate reader (Bio-Rad 3550).

human TR4 fusion protein = target: T2, human TR4 fusion protein (Homo sapiens, UniProt O00220, H141R/R209T)
T2 construct: made in house
T2 sequence (O00220 109-240 H141R/R209T): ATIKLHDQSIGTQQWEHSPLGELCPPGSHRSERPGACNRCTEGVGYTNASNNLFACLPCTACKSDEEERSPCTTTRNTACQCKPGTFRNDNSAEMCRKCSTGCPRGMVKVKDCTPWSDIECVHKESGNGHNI
Method: as §1, §2, §3, §4, §5

BLyS = BLyS (Homo sapiens, UniProt Q9Y275)
Chain of BLyS (Q9Y275 whole entry): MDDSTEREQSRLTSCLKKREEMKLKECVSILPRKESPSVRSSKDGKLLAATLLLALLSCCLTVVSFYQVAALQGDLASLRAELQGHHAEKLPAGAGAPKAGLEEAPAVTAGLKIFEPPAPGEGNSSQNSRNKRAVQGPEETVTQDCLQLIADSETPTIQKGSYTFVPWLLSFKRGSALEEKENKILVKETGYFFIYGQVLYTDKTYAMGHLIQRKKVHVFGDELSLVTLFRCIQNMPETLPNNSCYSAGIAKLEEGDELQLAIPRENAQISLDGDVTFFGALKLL
Method: as §1, §2, §3, §4, §5

TR7 = TR7 (Homo sapiens, UniProt O14763)
Chain of TR7 (O14763 56-411 isoform O14763-2 limits assumed): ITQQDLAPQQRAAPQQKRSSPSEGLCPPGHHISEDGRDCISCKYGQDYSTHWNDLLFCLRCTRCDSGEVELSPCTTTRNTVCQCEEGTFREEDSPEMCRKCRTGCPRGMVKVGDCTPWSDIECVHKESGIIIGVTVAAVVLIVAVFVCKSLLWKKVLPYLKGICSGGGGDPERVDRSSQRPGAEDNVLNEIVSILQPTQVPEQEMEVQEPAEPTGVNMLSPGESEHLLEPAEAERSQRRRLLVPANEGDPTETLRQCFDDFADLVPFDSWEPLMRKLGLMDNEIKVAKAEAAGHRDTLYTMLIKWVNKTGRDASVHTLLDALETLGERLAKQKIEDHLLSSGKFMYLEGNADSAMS
Method: as §1, §2, §3, §4, §5

[1] = test system: irrelevant fusion protein
Method: as §1, §2, §3, §4, §5

TR10 = target: T3, TR10 (Homo sapiens, UniProt Q9UBN6, L310S)
T3 sequence (Q9UBN6 56-386 L310S): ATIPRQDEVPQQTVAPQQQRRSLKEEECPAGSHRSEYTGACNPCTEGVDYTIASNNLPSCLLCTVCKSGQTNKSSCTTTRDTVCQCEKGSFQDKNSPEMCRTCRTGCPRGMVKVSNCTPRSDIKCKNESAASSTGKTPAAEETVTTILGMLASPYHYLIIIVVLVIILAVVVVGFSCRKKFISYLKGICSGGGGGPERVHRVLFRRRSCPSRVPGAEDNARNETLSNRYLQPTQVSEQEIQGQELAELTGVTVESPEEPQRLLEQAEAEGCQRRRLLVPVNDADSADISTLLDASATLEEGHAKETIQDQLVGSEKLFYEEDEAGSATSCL
Method: as §1, §2, §3, §4, §5

B1: T1014B11: scFv that immunospecifically binds TRAIL receptor TR4, protein SEQ ID NO:47 (protein)
scFv: EVQLVQSGAEVKKPGASVKVSCKISGDSFTAYFIHWLRQAPGEGLEWMGWFNPISGTAGSPQKFHGRVAMTRDTSISTAYMELTRLASDDTAIYYCARQHHSNTFDPWGQGTLVTVSSGGGGSGGGGSGGGGSAQSALTQPASVSGSPGQSITISCTGTNSDVGGYNYVSWYQQHPGKAPKLMIYEVNNRPSGVSNRFSGSKSGNTASLTISGLQADDEADYYCSSYTTSNTWVFGGGTKLTVLG
modifications: T1014B11 scFv
With B1 the “binding to TR5” value (TR5) was “not”, the “binding to TR4” value (human TR4 fusion protein) was “bind” and the “binding to BLyS” value (BLyS) was “not”. The “binding to TR7” value (TR7) was “not”, the “binding to an irrelevant fusion protein” value [1] was “not” and the “binding to TR10” value (TR10) was “not”.
